Reference: patent US20110166075A1

Biological target: Mac-1 (CD11b/CD18) integrin receptor on primary mouse microglia (mouse) (UniProt P05555)
Test: cell-based or functional assay

Chain of Mac-1 (CD11b/CD18) integrin receptor on primary mouse microglia (mouse) (P05555 17-1153, chain 1 of 2): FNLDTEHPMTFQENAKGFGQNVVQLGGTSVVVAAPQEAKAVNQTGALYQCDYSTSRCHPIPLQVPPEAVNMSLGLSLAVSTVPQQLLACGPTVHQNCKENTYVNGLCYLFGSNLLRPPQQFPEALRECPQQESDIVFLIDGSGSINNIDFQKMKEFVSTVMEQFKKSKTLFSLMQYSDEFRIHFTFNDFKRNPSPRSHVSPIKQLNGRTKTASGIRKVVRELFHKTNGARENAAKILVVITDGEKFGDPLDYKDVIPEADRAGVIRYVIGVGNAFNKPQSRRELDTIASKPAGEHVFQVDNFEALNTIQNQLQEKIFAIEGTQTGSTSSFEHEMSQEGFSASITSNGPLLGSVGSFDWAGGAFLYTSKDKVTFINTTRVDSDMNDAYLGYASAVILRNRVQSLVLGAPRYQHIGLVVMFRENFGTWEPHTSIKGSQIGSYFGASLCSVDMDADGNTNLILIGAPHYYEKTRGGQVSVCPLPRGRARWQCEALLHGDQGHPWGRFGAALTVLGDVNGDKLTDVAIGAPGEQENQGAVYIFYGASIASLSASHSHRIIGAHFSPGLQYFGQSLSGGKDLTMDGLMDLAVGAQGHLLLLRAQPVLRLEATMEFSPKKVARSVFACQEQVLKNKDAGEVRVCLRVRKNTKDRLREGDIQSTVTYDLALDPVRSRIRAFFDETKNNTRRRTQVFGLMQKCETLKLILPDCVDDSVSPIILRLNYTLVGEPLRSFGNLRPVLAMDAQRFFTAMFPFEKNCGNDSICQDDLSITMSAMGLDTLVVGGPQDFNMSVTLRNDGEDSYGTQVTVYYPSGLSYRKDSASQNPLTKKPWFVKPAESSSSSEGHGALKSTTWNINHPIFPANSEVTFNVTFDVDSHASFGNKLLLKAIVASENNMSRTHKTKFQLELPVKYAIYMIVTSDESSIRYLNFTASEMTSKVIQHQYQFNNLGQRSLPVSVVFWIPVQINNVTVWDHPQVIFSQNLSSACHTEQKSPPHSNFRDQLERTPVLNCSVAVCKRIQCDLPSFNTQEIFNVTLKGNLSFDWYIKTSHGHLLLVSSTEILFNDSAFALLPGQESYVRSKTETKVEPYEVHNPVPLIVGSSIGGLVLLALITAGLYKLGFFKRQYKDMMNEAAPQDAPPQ
Chain of Mac-1 (CD11b/CD18) integrin receptor on primary mouse microglia (mouse) (P11835 24-771, chain 2 of 2, further chain): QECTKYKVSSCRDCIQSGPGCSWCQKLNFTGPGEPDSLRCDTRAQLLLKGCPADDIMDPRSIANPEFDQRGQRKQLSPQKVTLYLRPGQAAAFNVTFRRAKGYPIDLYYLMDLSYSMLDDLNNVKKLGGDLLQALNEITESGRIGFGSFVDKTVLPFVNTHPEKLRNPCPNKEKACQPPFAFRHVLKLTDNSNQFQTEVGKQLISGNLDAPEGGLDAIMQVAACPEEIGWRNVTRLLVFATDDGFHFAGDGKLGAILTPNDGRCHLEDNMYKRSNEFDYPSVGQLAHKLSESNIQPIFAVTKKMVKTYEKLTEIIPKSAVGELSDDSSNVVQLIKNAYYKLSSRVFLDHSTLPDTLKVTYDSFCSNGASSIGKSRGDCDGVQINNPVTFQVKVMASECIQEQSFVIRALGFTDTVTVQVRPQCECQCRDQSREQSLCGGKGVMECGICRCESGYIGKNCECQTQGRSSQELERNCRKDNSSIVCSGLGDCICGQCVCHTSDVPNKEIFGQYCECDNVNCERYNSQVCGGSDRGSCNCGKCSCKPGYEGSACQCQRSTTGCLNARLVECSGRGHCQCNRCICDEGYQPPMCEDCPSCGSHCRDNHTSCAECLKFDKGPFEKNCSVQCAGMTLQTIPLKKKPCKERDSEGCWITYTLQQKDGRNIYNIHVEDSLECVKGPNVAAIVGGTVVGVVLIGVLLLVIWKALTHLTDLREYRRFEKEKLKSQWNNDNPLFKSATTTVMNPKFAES

Row | activated microglia (cells larger than 2,000 um^2), fibrinogen in the presence of M1/70 (% of activated microglia) | phagocytosis of fibrinogen-treated microglia [% reduction] | Akt phosphorylation in microglia (Western blot) [fold] | activated microglia (cells larger than 2,000 um^2), fibrinogen treated cells (% of activated microglia) | activated microglia, fibrinogen treatment (% of activated microglia) | active RhoA in microglia (GST-Rhotekin pull-down, Western blot) [fold] | Substance
1 | 18 | 40 |  |  |  |  | M1/70, rat anti-CD11b neutralizing antibody
2 |  |  | 24 | 71 | 71 | 1.9 | fibrinogen (Calbiochem), immobilized on tissue culture dishes (ligand)
